Test [1] deals with Purified PHB domain of FloA (Staphylococcus aureus). As to the kind of experiment: SEC; purified FloA variants at ~60 μM, Superdex 200 Increase 10/300 GL, 300 mM NaCl, 50 mM Tris-HCl pH 8.0, 10% glycerol, 0.02% DDM.
In test [2] the target is Purified native NfeD (Staphylococcus aureus). Description: SEC; purified NfeD variants at ~60 μM, Superdex 75 Increase 10/300 GL, 300 mM NaCl, 50 mM Tris-HCl pH 8.0, 10% glycerol, 0.02% DDM.
The target of test [3] is PHB-CC_(ΔEA4), PHB-CC variant with A286E287A288 deleted (Staphylococcus aureus). As to the kind of experiment: SEC; purified FloA variants at ~60 μM, Superdex 200 Increase 10/300 GL, 300 mM NaCl, 50 mM Tris-HCl pH 8.0, 10% glycerol, 0.02% DDM.
Test [4] addresses Purified OBL domain of NfeD (Staphylococcus aureus). Description: SEC; purified NfeD variants at ~60 μM, Superdex 75 Increase 10/300 GL, 300 mM NaCl, 50 mM Tris-HCl pH 8.0, 10% glycerol, 0.02% DDM.

The substance “Purified PHB domain of FloA (domain or fragment)” yielded a stoichiometry N in test [1] of 2.

Purified native NfeD (natural protein) returned a stoichiometry N in test [2] of 2.

Turning to “PHB-CC_(ΔEA4), PHB-CC variant with A286E287A288 deleted (domain or fragment)”, the stoichiometry N in test [3] is 2.

Regarding “Purified OBL domain of NfeD (domain or fragment)”, in test [4], the stoichiometry N worked out at 2.

Source of the values: article PMC11222466.
